Our source for the percent hydrolysis, HPLC (% hydrolysis within 30 minutes) and increase of fluorescence emission upon cleavage (FRET assay) (fold increase in fluorescence) values is US20130143251A1.

Assay [1] addresses ubiquitinated peptide 24 (full Ub linked through a native isopeptide bond to a 31-mer from the C-terminus of H2B) (human).
Assay [2] concerns the target doubly labelled ubiquitinated peptide 32: Dnp-labelled Ub linked through a native isopeptide bond to MCA-(Nle)FKTEG (FRET substrate) (human).
Assay [3] deals with ubiquitinated peptide 20 (full Ub linked through a native isopeptide bond to the H2B 8-mer AVTKYTSK) (human).

In the case of “recombinant human UCH-L3 (ubiquitin C-terminal hydrolase) (from UniProt P15374) (enzyme)”, the percent hydrolysis, HPLC (% hydrolysis within 30 minutes) stood at 25 in assay [1] and 75 in assay [3]. Further, the increase of fluorescence emission upon cleavage (FRET assay) (fold increase in fluorescence) in assay [2] was found to be 6.
